Where two headings read alike, the source gives them in different places.

Holding throughout (experiment): filter binding
Data set [1] addresses T1, Cbf5p;Nop10p;Gar1p (Saccharomyces cerevisiae;Saccharomyces …, UniProt P33322;Q6Q547;P28007 1-483;1-58;1-205, ||).
T1 sequence 1: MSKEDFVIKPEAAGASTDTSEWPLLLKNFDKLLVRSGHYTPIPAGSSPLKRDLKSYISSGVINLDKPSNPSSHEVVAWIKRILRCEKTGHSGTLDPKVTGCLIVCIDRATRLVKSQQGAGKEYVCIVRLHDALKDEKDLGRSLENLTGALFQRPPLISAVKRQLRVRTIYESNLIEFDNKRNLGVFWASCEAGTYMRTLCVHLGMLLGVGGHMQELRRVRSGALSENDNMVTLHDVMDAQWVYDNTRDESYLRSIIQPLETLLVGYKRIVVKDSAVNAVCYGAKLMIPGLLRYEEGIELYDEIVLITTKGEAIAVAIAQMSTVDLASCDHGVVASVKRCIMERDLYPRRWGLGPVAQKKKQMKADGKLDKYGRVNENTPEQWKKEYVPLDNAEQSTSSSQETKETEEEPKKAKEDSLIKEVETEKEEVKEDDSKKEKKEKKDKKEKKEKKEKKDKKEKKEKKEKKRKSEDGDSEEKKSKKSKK
T1 sequence 2: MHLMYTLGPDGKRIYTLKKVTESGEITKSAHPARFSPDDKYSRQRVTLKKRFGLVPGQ
T1 sequence 3: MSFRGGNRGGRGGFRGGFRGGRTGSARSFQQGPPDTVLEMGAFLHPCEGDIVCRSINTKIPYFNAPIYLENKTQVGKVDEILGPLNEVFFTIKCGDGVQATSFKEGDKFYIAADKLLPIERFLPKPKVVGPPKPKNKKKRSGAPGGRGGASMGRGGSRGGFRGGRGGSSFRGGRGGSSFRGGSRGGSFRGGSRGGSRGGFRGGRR

The target in data set [2] is T2, Cbf5p;Nop10p;Gar1p;Nhp2p (Saccharomyces cerevisiae;Saccharomyces …, UniProt P33322;Q6Q547;P28007;P32495 1-483;1-58;1-205;1-156, |||).
T2 sequence 1: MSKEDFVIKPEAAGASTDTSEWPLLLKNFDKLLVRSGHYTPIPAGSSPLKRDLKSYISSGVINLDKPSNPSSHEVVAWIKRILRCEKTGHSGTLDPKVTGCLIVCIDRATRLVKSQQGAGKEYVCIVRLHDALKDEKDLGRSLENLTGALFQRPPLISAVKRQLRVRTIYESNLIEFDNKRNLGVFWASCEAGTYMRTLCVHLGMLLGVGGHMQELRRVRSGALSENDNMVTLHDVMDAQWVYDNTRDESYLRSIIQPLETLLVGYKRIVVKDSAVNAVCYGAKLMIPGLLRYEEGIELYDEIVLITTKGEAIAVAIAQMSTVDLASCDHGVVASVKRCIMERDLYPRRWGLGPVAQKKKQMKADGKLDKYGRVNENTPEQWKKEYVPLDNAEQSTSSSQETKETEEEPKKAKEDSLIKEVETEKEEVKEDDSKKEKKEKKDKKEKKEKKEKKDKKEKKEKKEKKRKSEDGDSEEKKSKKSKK
T2 sequence 2: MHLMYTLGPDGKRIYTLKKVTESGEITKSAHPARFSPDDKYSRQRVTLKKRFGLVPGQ
T2 sequence 3: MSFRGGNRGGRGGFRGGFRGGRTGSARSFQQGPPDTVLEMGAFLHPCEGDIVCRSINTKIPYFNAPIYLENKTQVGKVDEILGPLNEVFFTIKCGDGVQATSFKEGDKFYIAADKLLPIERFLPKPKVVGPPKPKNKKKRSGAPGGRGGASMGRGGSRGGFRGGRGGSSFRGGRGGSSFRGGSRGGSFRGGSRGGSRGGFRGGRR
T2 sequence 4: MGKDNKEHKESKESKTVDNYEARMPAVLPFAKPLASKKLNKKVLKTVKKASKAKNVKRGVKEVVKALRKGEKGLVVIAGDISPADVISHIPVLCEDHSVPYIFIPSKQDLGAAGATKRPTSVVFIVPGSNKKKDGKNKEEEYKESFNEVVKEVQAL

Data set [3] concerns the target T2, Cbf5p;Nop10p;Gar1p;Nhp2p. The source holds these as a separate data set.
Data set [4] concerns the target T2, Cbf5p;Nop10p;Gar1p;Nhp2p. The source holds these as a separate data set.

For the molecule GGGACGUCGGCUCUUCCUAUCAUACC (mixed) [snR34 guide + 3' substrate RNA], in data set [1], the equilibrium dissociation constant (Kd) was 90 ± 20 nM.

The molecule GGGACGUCGGCUCUUCCUAUCAUACC (mixed) [snR34 delta Box ACA guide + 3' substrate RNA] came in with a dissociation constant Kd in data set [2] of 150 ± 30 nM. Take GGGGACAACUGGCUUGUGGCAGCCA (mixed) [snR34 guide + 5' substrate RNA]: the equilibrium dissociation constant (Kd) in data set [1] was found to be 50 ± 20 nM; in data set [3], 53 ± 22 nM. As to GGGACGUCGGCUCUUCCUAUCAUACC (mixed) [snR34 delta Box H guide + 3' substrate RNA], the dissociation constant (Kd) in data set [2] is 90 ± 30 nM.

B1: snR34 5' HP extended stem (structured_RNA)
RNA: GGGAAUCAAAAAUUUAUUUUUUACACGGAAACGAUGCCACAGUUGACUGAACCUGUCUUCUAACAGUAGUUAAUUGCCAGUAUUUCCGUGUAAACAAGA
For the molecule B1, the affinity in data set [4], expressed as Kd, was 1.3 ± 0.5 nM.

Usually Kd stands for a measure of binding affinity in units of concentration. Low values mean higher affinity, high ones lower affinity.

The values are drawn from article PMC5778458.
